Data as given in paper PMC3777911 (PLoS ONE, 2013).

B1: ALG-2 (product of the apoptosis linked gene-2), recombinant wild type (natural protein, UniProt P12815 1-191, looked up)
chain: MAAYSYRPGPGGGPGPAAGAALPDQSFLWNVFQRVDKDRSGVISDNELQQALSNGTWTPFNPVTVRSIISMFDRENKAGVNFSEFTGVWKYITDWQNVFRTYDRDNSGMIDKNELKQALSGFGYRLSDQFHDILIRKFDRQGRGQIAFDDFIQGCIVLQRLTDIFRRYDTDQDGWIQVSYEQYLSMVFSIV
notes: also called wt ALG-2; rALG-2; source: recombinant, purified as previously described [16]
B2: HA-Sec13 (natural protein, UniProt P55735 1-322, looked up)
chain: MVSVINTVDTSHEDMIHDAQMDYYGTRLATCSSDRSVKIFDVRNGGQILIADLRGHEGPVWQVAWAHPMYGNILASCSYDRKVIIWREENGTWEKSHEHAGHDSSVNSVCWAPHDYGLILACGSSDGAISLLTYTGEGQWEVKKINNAHTIGCNAVSWAPAVVPGSLIDHPSGQKPNYIKRFASGGCDNLIKLWKEEEDGQWKEEQKLEAHSDWVRDVAWAPSIGLPTSTIASCSQDGRVFIWTCDDASSNTWSPKLLHKFNDVVWHVSWSITANILAVSGGDNKVTLWKESVDGQWVCISDVNKGQGSVSASVTEGQQNEQ
notes: Sec13, mammalian COPII outer coat protein; source: co-expressed with His-Sec31A or His-Sec31ADelABD in ES-SF9 cells (Bac-to-Bac baculovirus)

Legend:
[1] = target: T1, HA-Sec13/His-Sec31A complex (outer COPII coat), wild type ( | human, UniProt P55735 1-322; O94979 1-1220); experiment: pull-down; His-tagged Sec31A (Sec13/Sec31A) immobilised on Nickel beads, recombinant ALG-2 versions added, in the presence of Ca2+; eluates on SDS-PAGE, SyproRed; ratios from fluorescence intensity; conditions: both partners purified
T1 construct: Sec13, mammalian COPII outer coat protein; human Sec31A; also called Sec13/31A; Sec13/Sec31A (wt); source: co-expressed in ES-SF9 cells (Bac-to-Bac baculovirus), purified (Ni-NTA)

His-Sec31A = target: T2, His-Sec31A (human, UniProt O94979 1-1220); experiment: co-purification (Ni-NTA affinity chromatography); the two chains co-expressed in ES-SF9 cells; complex purified on Ni-NTA through the His tag of Sec31A or Sec24; purified Sec13/Sec31A collected again on Ni beads, SyproRed; conditions: partners not purified
T2 construct: human Sec31A; also called wt Sec31A; source: co-expressed with HA-Sec13 in ES-SF9 cells (Bac-to-Bac baculovirus)
T2 sequence (looked up): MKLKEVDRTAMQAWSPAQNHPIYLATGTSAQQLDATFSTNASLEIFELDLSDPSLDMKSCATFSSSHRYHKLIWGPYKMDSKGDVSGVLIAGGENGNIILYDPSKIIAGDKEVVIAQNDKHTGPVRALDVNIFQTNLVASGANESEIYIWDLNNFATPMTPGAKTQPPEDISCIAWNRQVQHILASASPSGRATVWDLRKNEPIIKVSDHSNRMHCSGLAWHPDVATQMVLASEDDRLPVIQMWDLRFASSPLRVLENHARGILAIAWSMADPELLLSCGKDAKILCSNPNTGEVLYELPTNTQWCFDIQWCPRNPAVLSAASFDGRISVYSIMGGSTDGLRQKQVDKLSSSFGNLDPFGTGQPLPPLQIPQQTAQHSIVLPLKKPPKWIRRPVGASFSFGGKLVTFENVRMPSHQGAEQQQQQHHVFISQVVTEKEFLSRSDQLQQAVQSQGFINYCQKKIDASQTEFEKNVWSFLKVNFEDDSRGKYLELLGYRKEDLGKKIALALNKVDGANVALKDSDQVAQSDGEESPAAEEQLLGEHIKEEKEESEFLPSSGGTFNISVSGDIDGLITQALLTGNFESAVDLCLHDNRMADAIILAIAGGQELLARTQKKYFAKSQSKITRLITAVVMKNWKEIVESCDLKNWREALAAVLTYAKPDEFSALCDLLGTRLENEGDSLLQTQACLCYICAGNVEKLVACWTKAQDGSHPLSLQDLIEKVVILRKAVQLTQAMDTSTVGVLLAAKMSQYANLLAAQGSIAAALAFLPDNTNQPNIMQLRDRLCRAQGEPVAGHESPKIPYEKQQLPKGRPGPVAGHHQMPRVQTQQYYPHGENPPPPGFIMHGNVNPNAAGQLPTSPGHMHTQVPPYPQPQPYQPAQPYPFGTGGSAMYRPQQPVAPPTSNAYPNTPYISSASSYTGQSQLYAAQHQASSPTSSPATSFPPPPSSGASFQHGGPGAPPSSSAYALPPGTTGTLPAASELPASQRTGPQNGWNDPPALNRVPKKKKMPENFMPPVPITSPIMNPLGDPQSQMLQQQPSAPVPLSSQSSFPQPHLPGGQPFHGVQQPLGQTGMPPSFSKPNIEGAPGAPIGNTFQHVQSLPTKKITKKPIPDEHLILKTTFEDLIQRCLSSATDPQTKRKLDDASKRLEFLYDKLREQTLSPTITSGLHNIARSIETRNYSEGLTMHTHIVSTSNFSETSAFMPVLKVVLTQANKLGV

| Binder | stoichiometry N [1] | stoichiometry N (His-Sec31A) |
| --- | --- | --- |
| B1 | ~2 ALG-2 per Sec31A (molar ratio) | – |
| B2 | – | ~1 Sec13 per Sec31A (molar ratio) |
